From patent US20100136005A1 (Genentech, published 2010)
Where a chain is given by its changes, count along the chain named. One block for each binder: values may come before it.

Legend:
human CD11a [1] = target: T1, human CD11a (human, UniProt P20701 26-1170); assay: cell-based or functional assay
rhesus CD11a [2] = target: T2, rhesus CD11a (rhesus, UniProt H9Z8N3 26-1169); assay: cell binding, rhesus against human CD11a
T2 construct: whole, on cells; also called rhCD11a
T2 sequence: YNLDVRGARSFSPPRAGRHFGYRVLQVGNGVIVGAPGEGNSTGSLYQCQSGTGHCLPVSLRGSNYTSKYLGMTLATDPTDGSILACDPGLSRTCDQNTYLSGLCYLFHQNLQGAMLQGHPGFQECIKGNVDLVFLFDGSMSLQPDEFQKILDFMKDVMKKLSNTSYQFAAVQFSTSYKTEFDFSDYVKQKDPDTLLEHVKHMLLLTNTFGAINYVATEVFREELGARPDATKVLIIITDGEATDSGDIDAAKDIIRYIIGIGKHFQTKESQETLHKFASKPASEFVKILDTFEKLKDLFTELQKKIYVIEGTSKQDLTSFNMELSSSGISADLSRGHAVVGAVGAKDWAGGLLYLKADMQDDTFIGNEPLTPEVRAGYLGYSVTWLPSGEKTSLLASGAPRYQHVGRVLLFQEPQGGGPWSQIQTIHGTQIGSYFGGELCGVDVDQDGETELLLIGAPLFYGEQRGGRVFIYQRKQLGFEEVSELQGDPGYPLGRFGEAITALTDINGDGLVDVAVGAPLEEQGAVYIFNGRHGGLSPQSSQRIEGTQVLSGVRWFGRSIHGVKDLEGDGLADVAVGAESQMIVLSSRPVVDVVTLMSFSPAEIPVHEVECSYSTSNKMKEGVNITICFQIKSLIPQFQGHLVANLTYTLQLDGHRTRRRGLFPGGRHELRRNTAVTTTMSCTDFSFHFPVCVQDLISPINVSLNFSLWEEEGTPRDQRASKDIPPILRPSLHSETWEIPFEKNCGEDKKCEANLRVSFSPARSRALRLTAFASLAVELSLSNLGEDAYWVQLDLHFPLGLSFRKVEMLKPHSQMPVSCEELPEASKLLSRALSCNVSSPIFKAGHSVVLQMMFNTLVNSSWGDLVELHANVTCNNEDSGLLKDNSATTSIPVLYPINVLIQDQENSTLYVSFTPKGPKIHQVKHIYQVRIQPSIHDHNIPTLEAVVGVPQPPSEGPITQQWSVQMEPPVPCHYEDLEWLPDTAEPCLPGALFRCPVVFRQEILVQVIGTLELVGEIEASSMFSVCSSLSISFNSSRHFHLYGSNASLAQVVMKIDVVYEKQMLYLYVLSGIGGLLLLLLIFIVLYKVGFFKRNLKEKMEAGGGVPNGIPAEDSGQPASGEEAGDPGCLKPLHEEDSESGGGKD

human CD11a [3] = target: T1, human CD11a; assay: cell-based or functional assay; remark: listed apart in the source
rhesus CD11a [4] = target: T2, rhesus CD11a; assay: binding to rhesus peripheral blood lymphocytes
rhesus CD11a [5] = target: T2, rhesus CD11a; assay: rhesus EC50 of the variant against human EC50 of HuIgG1; end assigned by the printed EC50s
rhesus CD11a [6] = target: T2, rhesus CD11a; assay: binding to rhesus peripheral blood lymphocytes; end assigned by the printed EC50s
human CD11a [7] = target: T1, human CD11a; assay: FACScan, Jurkat cells
Method: (§1) Aliquots of 10⁶ Jurkat T-cells were incubated with serial dilutions of humanized and control antibodies in PBS-0.1% BSA-10 mM sodium azide for 45 min at 4° C. The cells were washed and then incubated in fluorescein-conjugated goat anti-human F(ab′)₂ (Organon Teknika, Westchester, Pa.) for 45 min at 4° C. Cells were washed and analysed on a FACScan (Becton Dickinson, Mountain View, Calif.). 8×10³ cells were acquired by list mode and gated by forward light scatter versus side light scatter, thereby excluding dead cells and debris.

rhesus CD11a [8] = target: T2, rhesus CD11a; assay: binding to rhesus peripheral blood lymphocytes; ratio to HuIgG1 EC50 (45.6 nM)
rhesus CD11a [9] = target: T2, rhesus CD11a; assay: as above; remark: listed apart in the source
human CD11a [10] = target: T1, human CD11a; assay: FACScan, Jurkat cells; ratio to HuIgG1 EC50 (0.042 nM)
Method: as §1

B1: humanized MHM24 HuIgG1 (antibody, V domains shown)
VH: EVQLVESGGGLVQPGGSLRLSCAASGYSFTGHWMNWVRQAPGKGLEWVGMIHPSDSETRYNQKFKDRFTISVDKSKNTLYLQMNSLRAEDTAVYYCARGIYFYGTTYFDYWGQGTLVTVSS
VL: DIQMTQSPSSLSASVGDRVTITCRASKTISKYLAWYQQKPGKAPKLLIYSGSTLQSGVPSRFSGSGSGTDFTLTISSLQPEDFATYYCQQHNEYPLTFGQGTKVEIKR
notes: F(ab)-8 VL and VH fused to human constant light and IgG1 heavy chains; also called huMHM24
- IC50 Value (nM), Jurkat:HuK cell adhesion (human CD11a [1]): 0.13 nM
- fold reduction in binding (rhesus against human CD11a) (rhesus CD11a [2]): ~1000 fold
- IC50 Value (nM), human mixed lymphocyte response (human CD11a [3]): 0.38 nM

B2: AspH54Ala (antibody, human IgG1, V domains shown)
VH: B1 VH with D55A
VL: DIQMTQSPSSLSASVGDRVTITCRASKTISKYLAWYQQKPGKAPKLLIYSGSTLQSGVPSRFSGSGSGTDFTLTISSLQPEDFATYYCQQHNEYPLTFGQGTKVEIK
notes: HuIgG1 variant (human IgG1); also called AspH54 change to Ala
- fold improvement over HuIgG1 (rhesus CD11a [4]): 3 fold

B3: H2C11 (antibody, V domains shown)
VH: B1 VH with H52A, S54A, D55S, E57N
VL: B1 VL
- fold weaker than the EC50 of HuIgG1 for human CD11a (rhesus CD11a [5]): 3 to 5 fold
- fold improvement over the EC50 of HuIgG1 for rhesus CD11a (rhesus CD11a [6]): 240 to 415 fold

B4: humanized MHM24 F(ab)-4 (Fab, V domains shown)
VH: B1 VH with Y27F, V72R, K74N
VL: B2 VL with T53S, Q55E
- fold reduction in binding (against F(ab)-2) (human CD11a [7]): 3 fold

B10: H2A1 (antibody, human IgG1, V domains shown)
VH: B1 VH with H52A, S54A
VL: B2 VL
notes: HuIgG1 variant (human IgG1); also called HisH52Ala/SerH53Ala; HisH52Ala-SerH53Ala
- fold improvement in binding compared to HuIgG1 (rhesus CD11a [4]): 77 fold

B11: AspH54Ser (antibody, human IgG1, V domains shown)
VH: B1 VH with D55S
VL: B2 VL
notes: HuIgG1 variant (human IgG1); also called AspH54 change to Ser
- Variant EC50/HuIgG1 EC50 (rhesus CD11a [9]): 0.9 ratio

B12: AspH54Gln (antibody, human IgG1, V domains shown)
VH: B1 VH with D55Q
VL: B2 VL
notes: HuIgG1 variant (human IgG1); also called AspH54 change to Gln
- Variant EC50/HuIgG1 EC50 (rhesus CD11a [9]): 4.4 ratio
- Variant EC50/HuIgG1 EC50 (human CD11a [10]): 20 ratio

B13: GluH56Ala (antibody, human IgG1, V domains shown)
VH: B1 VH with E57A
VL: B2 VL
notes: HuIgG1 variant (human IgG1)
- fold improvement over HuIgG1 (rhesus CD11a [4]): 3 fold

B14: humanized MHM24 F(ab)-7 (Fab, V domains shown)
VH: B1 VH with K76S, N77S
VL: B2 VL
notes: F(ab) with human CL and CH1; Worked back from F(ab)-8
- fold improvement in binding (against F(ab)-6) (human CD11a [7]): 3 fold

Other lines, results leading:

- Var.EC50/HuIgG1 EC50 (rhesus CD11a [8]): 13.3 ratio
B5: SerL52Ala (antibody, human IgG1, V domains shown)
VH: B1 VH
VL: B1 VL with S52A
notes: HuIgG1 variant (human IgG1)

- fold improvement in binding (against F(ab)-2) (human CD11a [7]): 23 fold
B6: humanized MHM24 F(ab)-5 (Fab, V domains shown)
VH: B1 VH with Y27F, K76S, N77S
VL: B2 VL with T53S, Q55E
notes: as for B14

- fold improvement in binding (against F(ab)-5) (human CD11a [7]): 4 fold
B7: humanized MHM24 F(ab)-6 (Fab, V domains shown)
VH: B1 VH with Y27F, K76S, N77S
VL: B2 VL
notes: as for B14

- fold better than HuIgG1 (rhesus CD11a [4]): 18 fold
B8: H2 (antibody, human IgG1, V domains shown)
VH: B1 VH with H52A, S54A, S56A
VL: B2 VL
notes: HuIgG1 variant (human IgG1); also called variant H2; HisH52Ala/SerH53Ala/SerH55Ala

- Variant EC50/HuIgG1 EC50 (rhesus CD11a [9]): 0.1 ratio
- fold improvement of rhesus binding (against HuIgG1) (rhesus CD11a [4]): 10 fold
- Variant EC50/HuIgG1 EC50 (human CD11a [10]): 26 ratio
B9: AspH54Asn (antibody, human IgG1, V domains shown)
VH: B1 VH with D55N
VL: B2 VL
notes: HuIgG1 variant (human IgG1); also called AspH54 change to Asn

- Variant EC50/HuIgG1 EC50 (human CD11a [10]): 16 ratio
B15: AspH54Glu (antibody, human IgG1, V domains shown)
VH: B1 VH with D55E
VL: B2 VL
notes: HuIgG1 variant (human IgG1); also called AspH54 change to Glu

- Variant EC50/HuIgG1 EC50 (rhesus CD11a [9]): 3.8 ratio
B16: AspH54Lys (antibody, human IgG1, V domains shown)
VH: B1 VH with D55K
VL: B2 VL
notes: HuIgG1 variant (human IgG1); also called AspH54 change to Lys

- IC50 Value (nM), Jurkat:HuK cell adhesion (human CD11a [1]): 0.09 nM
- fold reduction in binding (rhesus against human CD11a) (rhesus CD11a [2]): ~1000 fold
- IC50 Value (nM), human mixed lymphocyte response (human CD11a [3]): 0.19 nM
B17: murine MHM24 (antibody, V domains shown)
VH: EVQLQQPGAELMRPGASVKLSCKASGYSFTGHWMNWVRQRPGQGLEWIGMIHPSDSETRLNQKFKDKATLTVDKSSSSAYMQLSSPTSEDSAVYYCARGIYFYGTTYFDYWGQGTTLTVSS
VL: DVQITQSPSYLAASPGETISINCRASKTISKYLAWYQEKPGKTNKLLIYSGSTLQSGIPSRFSGSGSGTDFTLTISSLEPEDFAMYYCQQHNEYPLTFGTGTKLELKR
notes: Murine anti-human CD11a MAb; also called muMHM24; murMHM24

- IC50 Value (nM), Jurkat:HuK cell adhesion (human CD11a [1]): 0.1 nM
B18: chimeric MHM24 IgG1 (antibody, V domains shown)
VH: B17 VH
VL: B17 VL
